In US20130243753A1 (Genentech, published 2013):

T1: human Mer-Fc (human, UniProt Q12866 26-499)
T1 construct: not shown: Fc part not described
T1 sequence (looked up): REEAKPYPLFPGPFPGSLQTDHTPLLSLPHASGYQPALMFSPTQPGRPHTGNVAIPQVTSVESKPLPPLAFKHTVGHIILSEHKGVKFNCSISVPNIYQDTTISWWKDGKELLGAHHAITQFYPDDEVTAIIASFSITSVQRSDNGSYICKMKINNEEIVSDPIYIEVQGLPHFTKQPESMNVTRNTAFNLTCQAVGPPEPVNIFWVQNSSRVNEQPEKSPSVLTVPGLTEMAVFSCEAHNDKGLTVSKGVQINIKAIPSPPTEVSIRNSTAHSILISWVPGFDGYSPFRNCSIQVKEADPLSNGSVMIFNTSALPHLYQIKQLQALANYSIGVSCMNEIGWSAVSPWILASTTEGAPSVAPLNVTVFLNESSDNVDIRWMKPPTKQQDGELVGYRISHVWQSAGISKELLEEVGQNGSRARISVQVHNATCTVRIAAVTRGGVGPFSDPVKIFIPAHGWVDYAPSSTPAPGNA

T2: human Tyro3-Fc (human, UniProt Q06418 41-428)
T2 construct: not shown: Fc part not described
T2 sequence (looked up): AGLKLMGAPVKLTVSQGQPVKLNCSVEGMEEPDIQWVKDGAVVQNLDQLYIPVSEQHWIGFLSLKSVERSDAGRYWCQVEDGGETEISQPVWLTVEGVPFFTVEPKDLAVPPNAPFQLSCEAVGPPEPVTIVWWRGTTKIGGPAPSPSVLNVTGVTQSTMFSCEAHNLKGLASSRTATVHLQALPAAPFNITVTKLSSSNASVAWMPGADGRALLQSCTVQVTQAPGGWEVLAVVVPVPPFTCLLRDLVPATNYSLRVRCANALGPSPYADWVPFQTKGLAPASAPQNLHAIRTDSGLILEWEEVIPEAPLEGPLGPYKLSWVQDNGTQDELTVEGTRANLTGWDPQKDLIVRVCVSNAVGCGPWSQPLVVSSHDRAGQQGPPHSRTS


How the values were obtained:
[1] = molecular target: human Axl on the cell surface (HUVEC, A549, H1299, Baf3Axl cells) (human, UniProt P30530 26-894); assay: FACS on HUVEC; cells treated with antibody, then Gas6; blocked ligand Gas6 detected with biotinylated anti-Gas6 and streptavidin-PE
human Axl on the cell surface (HUVEC, A549, H1299, Baf3Axl cells), sequence (P30530 other isoform, or with tags, fused parts or gaps limits assumed): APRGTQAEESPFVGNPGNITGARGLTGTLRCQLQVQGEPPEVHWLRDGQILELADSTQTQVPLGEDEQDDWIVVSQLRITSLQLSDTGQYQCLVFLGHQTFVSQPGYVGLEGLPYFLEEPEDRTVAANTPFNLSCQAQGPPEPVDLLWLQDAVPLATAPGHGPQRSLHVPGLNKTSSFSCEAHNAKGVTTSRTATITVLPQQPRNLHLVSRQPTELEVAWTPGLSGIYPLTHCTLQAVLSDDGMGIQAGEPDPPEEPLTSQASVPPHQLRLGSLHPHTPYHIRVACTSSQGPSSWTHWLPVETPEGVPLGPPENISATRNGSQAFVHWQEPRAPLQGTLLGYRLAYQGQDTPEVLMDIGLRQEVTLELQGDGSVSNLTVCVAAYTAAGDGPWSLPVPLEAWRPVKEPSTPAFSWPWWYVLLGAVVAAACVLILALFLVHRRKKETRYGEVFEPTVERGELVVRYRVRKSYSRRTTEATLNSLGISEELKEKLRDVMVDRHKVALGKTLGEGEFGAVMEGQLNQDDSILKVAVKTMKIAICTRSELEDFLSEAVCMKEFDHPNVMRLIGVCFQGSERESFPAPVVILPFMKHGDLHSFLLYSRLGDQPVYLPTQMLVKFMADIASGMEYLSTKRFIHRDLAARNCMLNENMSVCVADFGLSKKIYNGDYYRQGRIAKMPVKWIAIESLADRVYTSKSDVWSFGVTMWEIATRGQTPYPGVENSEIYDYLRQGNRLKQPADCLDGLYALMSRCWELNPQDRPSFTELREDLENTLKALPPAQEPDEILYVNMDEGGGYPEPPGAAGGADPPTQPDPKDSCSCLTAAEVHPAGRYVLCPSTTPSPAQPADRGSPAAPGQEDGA

[2] = molecular target: T1, human Mer-Fc; assay: ELISA; receptor-Fc captured on anti-human IgG Fc coated plate
Experimental: (§1) Plates were coated with anti-human IgG Fc, and then incubated with human Axl, Mer, Tyro3 Fcs, mouse or cynomolgus AxlFcs. […] FIG. 7D: ELISA. Plates were coated with anti-human IgG Fc and incubated with human Axl-Fc. […] FIG. 7E: FACS. […] A549 cells were incubated with 1 μg/mlYW327.6S2 for indicated time, and cell surface Axl expression was determined by FACS (upper panel), and total protein expression by Western Blotting analysis (lower panel). […] Phosphorylated Axl was measured by ELISA (upper panel), and phosphorylated Akt by Western Blotting analysis (lower panel). […] Cell viability was measured by CellTiter Glo assay.
(§2) ELISA assays were performed as follows: goat anti-human IgG Fc coated plates were blocking with 0.5% BSA, PBS, 0.05% Tween 20 (PBST). For cross reaction assay, coated plates were incubated with human Axl.Fc, mouse Axl.Fc or human Mer.Fc, Tyro-3.Fc for 1 hr at room temperature, washed four times in PBST, incubated with anti-Axl mAbs and HRP-conjugated anti-mouse Ig. […] Plates were washed four times in PBST, incubated with biotinylated anti-mGas6 and strepavidin-HRP. Secreted Ang-2 and DKK3 was measured using R&D ELISA kit, according to the manufacturer's instruction.

[3] = molecular target: T2, human Tyro3-Fc; assay: as above
Experimental: as §1, §2

[4] = molecular target: human Axl-Fc (human) (UniProt P30530); assay: competition ELISA; human Axl-Fc captured on anti-human IgG Fc plate, blocked ligand Gas6 detected with biotinylated anti-Gas6 and streptavidin-HRP
human Axl-Fc (human), sequence (P30530 other isoform, or with tags, fused parts or gaps, form in doubt): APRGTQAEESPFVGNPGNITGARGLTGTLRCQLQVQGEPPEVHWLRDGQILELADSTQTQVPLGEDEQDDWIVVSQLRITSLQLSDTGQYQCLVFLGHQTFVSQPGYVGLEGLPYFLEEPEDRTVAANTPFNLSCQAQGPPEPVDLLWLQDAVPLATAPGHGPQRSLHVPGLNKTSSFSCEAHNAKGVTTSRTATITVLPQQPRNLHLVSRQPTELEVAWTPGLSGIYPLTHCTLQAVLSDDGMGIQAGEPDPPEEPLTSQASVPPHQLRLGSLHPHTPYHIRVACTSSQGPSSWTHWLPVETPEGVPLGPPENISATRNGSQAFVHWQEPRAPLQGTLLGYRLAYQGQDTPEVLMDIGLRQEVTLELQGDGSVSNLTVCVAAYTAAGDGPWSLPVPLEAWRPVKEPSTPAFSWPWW

[5] = molecular target: human Axl ECD-His protein (human) (UniProt P30530); assay: SPR (BIAcore-3000): IgG captured by anti-human IgG, human Axl ECD-His injected
[6] = molecular target: T3, murine Axl ECD-Fc fusion protein (murine; human, UniProt Q00993 19-445); assay: SPR (BIAcore-3000): murine Axl ECD-Fc captured by anti-human IgG, anti-Axl Fab injected
T3 construct: extracellular domain; also called murine Axl ECD human IgG fusion protein; mouse Axl.Fc; not shown: human IgG Fc
T3 sequence (Q00993 19-445): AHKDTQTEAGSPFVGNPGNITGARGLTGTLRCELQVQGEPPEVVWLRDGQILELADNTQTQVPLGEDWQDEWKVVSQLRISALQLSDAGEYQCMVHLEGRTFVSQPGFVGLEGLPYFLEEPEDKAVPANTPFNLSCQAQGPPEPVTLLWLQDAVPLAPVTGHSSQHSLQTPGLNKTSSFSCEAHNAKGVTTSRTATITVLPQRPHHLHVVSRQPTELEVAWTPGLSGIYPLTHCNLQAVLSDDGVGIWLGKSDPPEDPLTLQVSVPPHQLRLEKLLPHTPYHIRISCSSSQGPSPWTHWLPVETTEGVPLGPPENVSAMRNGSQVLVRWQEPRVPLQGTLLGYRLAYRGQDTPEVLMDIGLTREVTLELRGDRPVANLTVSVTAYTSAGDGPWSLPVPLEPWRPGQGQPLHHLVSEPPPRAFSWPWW
Experimental: Association rates (kₒₙ) and dissociation rates (koff) were calculated using a simple one-to-one Langmuir binding model (BIAcore Evaluation Software version 3.2).

Binder	IC50 (read off the curve) [1] [mg/L]	binding result [2]	binding result [3]	IC50 (read off the curve) [4] [mg/L]	Kd [5] [nM]	Kd [6] [nM]
Affinity matured Axl mAb YW327.6S2 (full-length human IgG) (antibody, V domains shown, No sentence ties these to this name, so they are not used; also called YW327.652) VH: EVQLVESGGGLVQPGGSLRLSCAASGFSLSGSWIHWVRQAPGKGLEWVGWINPYRGYAYYADSVKGRFTISADTSKNTAYLQMNSLRAEDTAVYYCAREYSGWGGSSVGYAMDYWGQGTLVTVSS VL: DIQMTQSPSSLSASVGDRVTITCRASQDVSTAVAWYQQKPGKAPKLLIYSASFLYSGVPSRFSGSGSGTDFTLTISSLQPEDFATYYCQQSYTTPPTFGQGTKVEIK	~0.1	no binding (tested: concentration not shown)	no binding (tested: concentration not shown)	0.02	1	
YW327.6S2 Fab fragment (Fab, V domains shown, The result sentence names only the mAb; also called anti-Axl Fab fragment; YW327.652) VH: EVQLVESGGGLVQPGGSLRLSCAASGFSLSGSWIHWVRQAPGKGLEWVGWINPYRGYAYYADSVKGRFTISADTSKNTAYLQMNSLRAEDTAVYYCAREYSGWGGSSVGYAMDYWGQGTLVTVSS VL: DIQMTQSPSSLSASVGDRVTITCRASQDVSTAVAWYQQKPGKAPKLLIYSASFLYSGVPSRFSGSGSGTDFTLTISSLQPEDFATYYCQQSYTTPPTFGQGTKVEIK						0.545
